Measurements: US20190330271A1

Assays:
lysozyme = test: cell-based or functional assay
amylin = amylin (UniProt P10997); test: cell-based or functional assay
Aβ42 = Aβ42 (UniProt P05067); test: cell-based or functional assay
insulin = test: cell-based or functional assay
Aβ42 oligomers, P05067 = test: ELISA, amyloid coated at 1 µg/well, His-tagged ZR detected with HRP-linked antibody
Aβ42 monomers, P05067 = test: as above
amylin monomers, P10997 = biological target: T1, amylin monomers, P10997; test: as above
T1 chain: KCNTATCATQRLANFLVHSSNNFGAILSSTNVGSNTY

amylin oligomers, P10997 = biological target: T2, amylin oligomers, P10997; test: as above
T2 chain: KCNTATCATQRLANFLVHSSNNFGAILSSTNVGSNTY

amylin fibers, P10997 = biological target: T3, amylin fibers, P10997; test: as above
T3 chain: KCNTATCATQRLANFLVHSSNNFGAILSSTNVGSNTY

Aβ42 fibers, P05067 = test: as above
Aβ42 fibers, P05067, sequence (P05067 672-713 limits assumed): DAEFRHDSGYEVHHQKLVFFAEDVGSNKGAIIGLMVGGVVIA

Aβ42, sequence (P05067 672-713 limits assumed): as above
Aβ42 oligomers, P05067, sequence (P05067 672-713 limits assumed): as above
Aβ42 monomers, P05067, sequence (P05067 672-713 limits assumed): as above

SFFNNKR [ZR polypeptide (SEQ ID NO. 2)]
ThT fluorescence value, lysozyme with ZR at a molar ratio of 1:1 (lysozyme alone: 310000) (lysozyme): 220000
ThT fluorescence value, lysozyme with ZR at a molar ratio of 1:10 (lysozyme alone: 310000) (lysozyme): 170000
cell activity of SH-SY5Y cells (MTT), lysozyme:ZR=1:1 group (lysozyme group: 55%) (lysozyme): 85%
cell activity of SH-SY5Y cells (MTT), lysozyme:ZR=1:10 group (lysozyme group: 55%) (lysozyme): 93%
cytotoxicity inhibited, molar ratio 1:10 (lysozyme): 118%
ThT fluorescence value, amylin with ZR at a molar ratio of 1:1 (amylin alone: 38000) (amylin): 41000
ThT fluorescence value, amylin with ZR at a molar ratio of 1:10 (amylin alone: 38000) (amylin): 43000
cell activity of SH-SY5Y cells (MTT), Amylin:ZR=1:1 group (Amylin group: 61%) (amylin): 70%
cell activity of SH-SY5Y cells (MTT), Amylin:ZR=1:10 group (Amylin group: 61%) (amylin): 75%
cytotoxicity inhibited, molar ratio 1:10 (amylin): 45.4%
ThT fluorescence value, Aβ42 with ZR at a molar ratio of 1:1 (Aβ42 alone: 26500) (Aβ42): 22000
ThT fluorescence value, Aβ42 with ZR at a molar ratio of 1:10 (Aβ42 alone: 26500) (Aβ42): 17000
cell activity of SH-SY5Y cells (MTT), Aβ:ZR=1:0.5 group (Aβ42 group: 71%) (Aβ42): 80%
cell activity of SH-SY5Y cells (MTT), Aβ:ZR=1:1 group (Aβ42 group: 71%) (Aβ42): 82%
cytotoxicity inhibited, molar ratio 1:1 (Aβ42): 37.8%
ThT fluorescence value, insulin with ZR at a molar ratio of 1:1 (insulin alone: 305000) (insulin): 305000
ThT fluorescence value, insulin with ZR at a molar ratio of 1:10 (insulin alone: 305000) (insulin): 310000
cell activity of SH-SY5Y cells (MTT), insulin:ZR=1:1 group (insulin group: 77%) (insulin): 92%
cell activity of SH-SY5Y cells (MTT), insulin:ZR=1:5 group (insulin group: 77%) (insulin): 102%
cytotoxicity inhibited, molar ratio 1:5 (insulin): 89.8%

SFFNNKR (modifications not checked) [histidine-tagged ZR polypeptide (SEQ ID NO. 2)]
OD450 (Aβ42 oligomers, P05067): 0.38
OD450 (Aβ42 monomers, P05067): 0.34
OD450 (amylin monomers, P10997): 0.41
OD450 (amylin oligomers, P10997): 0.5
OD450 (amylin fibers, P10997): 0.18
OD450 (Aβ42 fibers, P05067): 0.35
